Values of other authors as cited in publication PMC12757075.

Biological target: actin filament barbed end (Oryctolagus cuniculus) (UniProt P68135)

Question: With VASP (from UniProt P50552) as the substance, how does the Kd read?
Answer: 9.2 nM
